B1: TSG101 (protein, UniProt Q99816 2-390, looked up)
Tumor susceptibility gene 101 …: AVSESQLKKMVSKYKYRDLTVRETVNVITLYKDLKPVLDSYVFNDGSSRELMNLTGTIPVPYRGNTYNIPICLWLLDTYPYNPPICFVKPTSSMTIKTGKHVDANGKIYLPYLHEWKHPQSDLLGLIQVMIVVFGDEPPVFSRPISASYPPYQATGPPNTSYMPGMPGGISPYPSGYPPNPSGYPGCPYPPGGPYPATTSSQYPSQPPVTTVGPSRDGTISEDTIRASLISAVSDKLRWRMKEEMDRAQAELNALKRTEEDLKKGHQKLEEMVTRLDQEVAEVDKNIELLKKKDEELSSALEKMENQSENNDIDEVIIPTAPLYKQILNLYAEENAIEDTIFYLGEALRRGVIDLDVFLKHVRLLSRKQFQLRALMQKARKTAGLSDLY
B2: TSC22D2 (protein, UniProt O75157 1-780, looked up)
TSC22 domain family protein 2: MSKMPAKKKSCFQITSVTTAQVATSITEDTESLDDPDESRTEDVSSEIFDVSRATDYGPEEVCERSSSEETLNNVGDAETPGTVSPNLLLDGQLAAAAAAPANGGGVVSARSVSGALASTLAAAATSAPAPGAPGGPQLAGSSAGPVTAAPSQPPTTCSSRFRVIKLDHGSGEPYRRGRWTCMEYYERDSDSSVLTRSGDCIRHSSTFDQTAERDSGLGATGGSVVVVVASMQGAHGPESGTDSSLTAVSQLPPSEKMSQPTPAQPQSFSVGQPQPPPPPVGGAVAQSSAPLPPFPGAATGPQPMMAAAQPSQPQGAGPGGQTLPPTNVTLAQPAMSLPPQPGPAVGAPAAQQPQQFAYPQPQIPPGHLLPVQPSGQSEYLQQHVAGLQPPSPAQPSSTGAAASPATAATLPVGTGQNASSVGAQLMGASSQPSEAMAPRTGPAQGGQVAPCQPTGVPPATVGGVVQPCLGPAGAGQPQSVPPPQMGGSGPLSAVPGGPHAVVPGVPNVPAAVPAPSVPSVSTTSVTMPNVPAPLAQSQQLSSHTPVSRSSSIIQHVGLPLAPGTHSAPTSLPQSDLSQFQTQTQPLVGQVDDTRRKSEPLPQPPLSLIAENKPVVKPPVADSLANPLQLTPMNSLATSVFSIAIPVDGDEDRNPSTAFYQAFHLNTLKESKSLWDSASGGGVVAIDNKIEQAMDLVKSHLMYAVREEVEVLKEQIKELVERNSLLERENALLKSLSSNDQLSQLPTQQANPGSTSQQQAVIAQPPQPTQPPQQPNVSSA
B3: TSHZ1 (protein, UniProt Q6ZSZ6 1-1077, looked up)
Teashirt homolog 1: MPRRKQQAPRRSAAYVPEEELKAAEIDEEHVEDDGLSLDIQESEYMCNEETEIKEAQSYQNSPVSSATNQDAGYGSPFSESSDQLAHFKGSSSREEKEDPQCPDSVSYPQDSLAQIKAVYANLFSESCWSSLALDLKKSGSTTSTNDASQKESSAPTPTPPTCPVSTTGPTTSTPSTSCSSSTSHSSTTSTSSSSGYDWHQAALAKTLQQTSSYGLLPEPSLFSTVQLYRQNNKLYGSVFTGASKFRCKDCSAAYDTLVELTVHMNETGHYRDDNRDKDSEKTKRWSKPRKRSLMEMEGKEDAQKVLKCMYCGHSFESLQDLSVHMIKTKHYQKVPLKEPVPAITKLVPSTKKRALQDLAPPCSPEPAGMAAEVALSESAKDQKAANPYVTPNNRYGYQNGASYTWQFEARKAQILKCMECGSSHDTLQQLTAHMMVTGHFLKVTTSASKKGKQLVLDPVVEEKIQSIPLPPTTHTRLPASSIKKQPDSPAGSTTSEEKKEPEKEKPPVAGDAEKIKEESEDSLEKFEPSTLYPYLREEDLDDSPKGGLDILKSLENTVSTAISKAQNGAPSWGGYPSIHAAYQLPGTVKPLPAAVQSVQVQPSYAGGVKSLSSAEHNALLHSPGSLTPPPHKSNVSAMEELVEKVTGKVNIKKEERPPEKEKSSLAKAASPIAKENKDFPKTEEVSGKPQKKGPEAETGKAKKEGPLDVHTPNGTEPLKAKVTNGCNNLGIIMDHSPEPSFINPLSALQSIMNTHLGKVSKPVSPSLDPLAMLYKISNSMLDKPVYPATPVKQADAIDRYYYENSDQPIDLTKSKNKPLVSSVADSVASPLRESALMDISDMVKNLTGRLTPKSSTPSTVSEKSDADGSSFEEALDELSPVHKRKGRQSNWNPQHLLILQAQFASSLRETTEGKYIMSDLGPQERVHISKFTGLSMTTISHWLANVKYQLRRTGGTKFLKNLDTGHPVFFCNDCASQFRTASTYISHLETHLGFSLKDLSKLPLNQIQEQQNVSKVLTNKTLGPLGATEEDLGSTFQCKLCNRTFASKHAVKLHLSKTHGKSPEDHLIYVTELEKQ
B4: TRPS1 (protein, UniProt Q9UHF7 1-1281, looked up)
Zinc finger transcription …: MVRKKNPPLRNVASEGEGQILEPIGTESKVSGKNKEFSADQMSENTDQSDAAELNHKEEHSLHVQDPSSSSKKDLKSAVLSEKAGFNYESPSKGGNFPSFPHDEVTDRNMLAFSSPAAGGVCEPLKSPQRAEADDPQDMACTPSGDSLETKEDQKMSPKATEETGQAQSGQANCQGLSPVSVASKNPQVPSDGGVRLNKSKTDLLVNDNPDPAPLSPELQDFKCNICGYGYYGNDPTDLIKHFRKYHLGLHNRTRQDAELDSKILALHNMVQFSHSKDFQKVNRSVFSGVLQDINSSRPVLLNGTYDVQVTSGGTFIGIGRKTPDCQGNTKYFRCKFCNFTYMGNSSTELEQHFLQTHPNKIKASLPSSEVAKPSEKNSNKSIPALQSSDSGDLGKWQDKITVKAGDDTPVGYSVPIKPLDSSRQNGTEATSYYWCKFCSFSCESSSSLKLLEHYGKQHGAVQSGGLNPELNDKLSRGSVINQNDLAKSSEGETMTKTDKSSSGAKKKDFSSKGAEDNMVTSYNCQFCDFRYSKSHGPDVIVVGPLLRHYQQLHNIHKCTIKHCPFCPRGLCSPEKHLGEITYPFACRKSNCSHCALLLLHLSPGAAGSSRVKHQCHQCSFTTPDVDVLLFHYESVHESQASDVKQEANHLQGSDGQQSVKESKEHSCTKCDFITQVEEEISRHYRRAHSCYKCRQCSFTAADTQSLLEHFNTVHCQEQDITTANGEEDGHAISTIKEEPKIDFRVYNLLTPDSKMGEPVSESVVKREKLEEKDGLKEKVWTESSSDDLRNVTWRGADILRGSPSYTQASLGLLTPVSGTQEQTKTLRDSPNVEAAHLARPIYGLAVETKGFLQGAPAGGEKSGALPQQYPASGENKSKDESQSLLRRRRGSGVFCANCLTTKTSLWRKNANGGYVCNACGLYQKLHSTPRPLNIIKQNNGEQIIRRRTRKRLNPEALQAEQLNKQQRGSNEEQVNGSPLERRSEDHLTESHQREIPLPSLSKYEAQGSLTKSHSAQQPVLVSQTLDIHKRMQPLHIQIKSPQESTGDPGNSSSVSEGKGSSERGSPIEKYMRPAKHPNYSPPGSPIEKYQYPLFGLPFVHNDFQSEADWLRFWSKYKLSVPGNPHYLSHVPGLPNPCQNYVPYPTFNLPPHFSAVGSDNDIPLDLAIKHSRPGPTANGASKEKTKAPPNVKNEGPLNVVKTEKVDRSTQDELSTKCVHCGIVFLDEVMYALHMSCHGDSGPFQCSICQHLCTDKYDFTTHIQRGLHRNNAQVEKNGKPKE

System: HEK293FT cells transfected with TF library
Assay: Screening of TF condensates based on fluorescent puncta
Format: cell-based
Settings: Figure 1B numerical data; TF library screen, one value per transcriptional factor
In short: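 HEK293FT cells were reverse-transfected with Flag- or GAL4-tagged TF plasmids (1.6 μg/ml, PEI). After 60 h, cells were cultured 12 h with or without glucose, then fixed and immunostained with anti-Flag or anti-GAL4 and Alexa 488 secondaries. Fluorescent puncta were imaged over fifty random fields per well by high-content imaging.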

Molecule | Z score of condensed fraction
B1 | 0.9844
B2 | -1.109
B3 | -1.076
B4 | -0.2124

Source: article PMC11574045, “A cofactor-induced repressive type of transcription factor condensation can be induced by synthetic peptides to suppress tumorigenesis” (The EMBO Journal, 2024)
